From article PMC10611751 (2023) come the findings set out here.

Common to all, as to test: ITC
A general note: Isothermal titration calorimetry measures the heat released or taken up as one component is titrated into another.

For assay [1], the target named is T1, Ankyrin-G 24 ANK repeats (residues 38-855) (UniProt O70511 38-855).
T1 chain: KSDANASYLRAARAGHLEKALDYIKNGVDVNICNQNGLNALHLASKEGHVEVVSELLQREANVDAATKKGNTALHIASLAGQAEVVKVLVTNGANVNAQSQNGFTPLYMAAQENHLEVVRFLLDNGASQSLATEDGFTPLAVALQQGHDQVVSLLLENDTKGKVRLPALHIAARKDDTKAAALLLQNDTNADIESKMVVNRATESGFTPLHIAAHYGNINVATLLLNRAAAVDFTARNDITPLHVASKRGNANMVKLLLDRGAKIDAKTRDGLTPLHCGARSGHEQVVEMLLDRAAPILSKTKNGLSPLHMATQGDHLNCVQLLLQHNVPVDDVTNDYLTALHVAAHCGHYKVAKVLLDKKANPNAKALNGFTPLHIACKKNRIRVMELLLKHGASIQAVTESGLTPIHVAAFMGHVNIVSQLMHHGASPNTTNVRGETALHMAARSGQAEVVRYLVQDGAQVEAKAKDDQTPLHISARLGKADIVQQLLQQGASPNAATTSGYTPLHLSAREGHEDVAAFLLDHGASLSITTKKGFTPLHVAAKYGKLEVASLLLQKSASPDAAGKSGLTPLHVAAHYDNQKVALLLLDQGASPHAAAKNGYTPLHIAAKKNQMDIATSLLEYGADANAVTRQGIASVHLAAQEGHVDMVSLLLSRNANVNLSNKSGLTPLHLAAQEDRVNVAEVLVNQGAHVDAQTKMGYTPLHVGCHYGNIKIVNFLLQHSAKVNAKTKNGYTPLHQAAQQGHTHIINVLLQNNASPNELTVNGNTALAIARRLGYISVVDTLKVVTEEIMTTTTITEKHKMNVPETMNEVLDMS

In assay [2] the target is T2, Ankyrin-G ANK repeats 8-14 (UniProt O70511 275-500).
T2 chain: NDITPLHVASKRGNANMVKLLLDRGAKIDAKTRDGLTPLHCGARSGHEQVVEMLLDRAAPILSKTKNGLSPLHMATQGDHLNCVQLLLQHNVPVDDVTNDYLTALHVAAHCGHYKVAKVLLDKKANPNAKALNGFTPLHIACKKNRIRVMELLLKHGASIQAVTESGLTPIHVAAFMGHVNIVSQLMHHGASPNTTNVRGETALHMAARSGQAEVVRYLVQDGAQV

The next assay concerns the target T3, AnkG R6-24 (Rattus norvegicus).
T3 chain: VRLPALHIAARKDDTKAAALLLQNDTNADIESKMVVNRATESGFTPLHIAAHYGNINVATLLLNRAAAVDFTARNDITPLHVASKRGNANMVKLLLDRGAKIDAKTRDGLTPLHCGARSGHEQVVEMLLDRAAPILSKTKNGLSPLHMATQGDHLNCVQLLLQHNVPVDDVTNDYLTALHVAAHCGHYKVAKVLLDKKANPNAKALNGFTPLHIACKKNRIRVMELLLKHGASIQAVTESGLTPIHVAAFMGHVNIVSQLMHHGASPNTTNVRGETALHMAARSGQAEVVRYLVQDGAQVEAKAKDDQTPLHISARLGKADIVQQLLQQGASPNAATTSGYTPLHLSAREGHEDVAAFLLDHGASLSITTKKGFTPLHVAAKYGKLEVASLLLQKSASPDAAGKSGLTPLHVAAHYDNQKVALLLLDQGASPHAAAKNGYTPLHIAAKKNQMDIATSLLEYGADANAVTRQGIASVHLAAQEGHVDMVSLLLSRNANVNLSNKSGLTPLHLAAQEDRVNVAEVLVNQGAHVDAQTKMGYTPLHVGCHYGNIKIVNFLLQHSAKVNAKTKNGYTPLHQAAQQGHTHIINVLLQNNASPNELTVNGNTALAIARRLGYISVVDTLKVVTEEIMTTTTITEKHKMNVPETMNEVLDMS

Assay [3] addresses T1, Ankyrin-G 24 ANK repeats (residues …).
In assay [4] the target is E-cadherin CTD site-1, 3 to A (mouse, UniProt P09803 734-884, Y755A | Y756A | Y757A | Y861A | Y863A | W867A).
Assay [5] addresses E-cadherin CTD site-1, 2 to A (mouse, UniProt P09803 734-884, Y755A | Y756A | Y757A | Y829A | Y837A).
Assay [6] addresses E-cadherin CTD site-3 to A (mouse, UniProt P09803 734-884, Y861A | Y863A | W867A).
Assay [7] deals with E-cadherin CTD site-1 to A (mouse, UniProt P09803 734-884, Y755A | Y756A | Y757A).
Assay [8] has as its target E-cadherin CTD site-2, 3 to A (mouse, UniProt P09803 734-884, Y829A | Y837A | Y861A | Y863A | W867A).
Assay [9] deals with E-cadherin CTD site-1, 2, 3 to A (a total of 8 aromatic residue substitutions) (mouse, UniProt P09803 734-884, Y755A | Y756A | Y757A | Y829A | Y837A | Y861A | Y863A | W867A).
In assay [10] the target is E-cadherin CTD site-2 to A (mouse, UniProt P09803 734-884, Y829A | Y837A).

Like-named read-outs stand apart in the source and are kept apart here. A value given as a limit tells only on which side of the number the result lay.

As usually defined, the Kd is the free concentration of one partner at which half of the binding sites on the other are occupied at equilibrium, for simple one-to-one binding. Lower therefore signals tighter binding.

As to YYADEEGGGEEDQDFD (domain or fragment) [E-cadherin site-1 Y757A], the equilibrium dissociation constant (Kd) in assay [1] stood at 2.2 µM.

YAADEEGGGEEDQDFD [E-cadherin 755-770 Y756A,Y757A] gave a dissociation constant Kd in assay [1] of 7.1 µM.

For the molecule RDNVYYYDEEGGGEEDQDFDLSQLH (domain or fragment) [E-cadherin 751-775 (site-1)], the Kd in assay [2] was determined as 8.9 µM; in the assay with AnkG R6-24, 1.8 µM.

In [1], PYDSLLVFDAEGSGS (domain or fragment) [E-cadherin site-2 Y837A] registered a dissociation constant (Kd) of 9.5 µM.

For ESDQDQDYDALNEWGN (domain or fragment) [E-cadherin site-3 Y863A], binding in [1] was put at a Kd of 3.9 µM.

B1: E-cadherin 776-884 (domain or fragment)
chain: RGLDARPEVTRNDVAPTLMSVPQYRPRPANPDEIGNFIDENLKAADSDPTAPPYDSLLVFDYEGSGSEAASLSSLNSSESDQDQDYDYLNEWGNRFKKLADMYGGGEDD
In [3], B1 registered a dissociation constant (Kd) of 0.8 µM.

With ESDQDQDYDYLNEAGN (domain or fragment) [E-cadherin site-3 W867A], in [1], the Kd amounted to 3.9 µM.

PADSLLVFDYEGSGS (domain or fragment) [E-cadherin site-2 Y829A] came in with a Kd in assay [1] of 1.7 µM.

As to ESDQDQDADYLNEWGN (domain or fragment) [E-cadherin site-3 Y861A], the equilibrium dissociation constant (Kd) in assay [1] is 3.2 µM.

ESDQDQDADALNEWGN [E-cadherin 854-869 Y861A,Y863A] yielded an equilibrium dissociation constant (Kd) in [1] of 5.8 µM.

B2: p120 catenin 324-938 (domain or fragment)
chain: MIGEEVPPDQYYWAPLAQHERGSLASLDSLRKGMPPPSNWRQPELPEVIAMLGFRLDAVKSNAAAYLQHLCYRNDKVKTDVRKLKGIPILVGLLDHPKKEVHLGACGALKNISFGRDQDNKIAIKNCDGVPALVRLLRKARDMDLTEVITGTLWNLSSHDSIKMEIVDHALHALTDEVIIPHSGWEREPNEDCKPRHIEWESVLTNTAGCLRNVSSERSEARRKLRECDGLVDALIFIVQAEIGQKDSDSKLVENCVCLLRNLSYQVHREIPQAERYQEALPTVANSTGPHAASCFGAKKGKDEWFSRGKKPTEDPANDTVDFPKRTSPARGYELLFQPEVVRIYISLLKESKTPAILEASAGAIQNLCAGRWTYGRYIRSALRQEKALSAIAELLTSEHERVVKAASGALRNLAVDARNKELIGKHAIPNLVKNLPGGQQNSSWNFSEDTVVSILNTINEVIAENLEAAKKLRETQGIEKLVLINKSGNRSEKEVRAAALVLQTIWGYKELRKPLEKEGWKKSDFQVNLNNASRSQSSHSYDDSTLPLIDRNQKSDKKPDREEIPMSNMGSNTKSLDNNYSTLNERGDHNRTLDRSGDLGDMEPLKGAPLMQKI
As to B2, the dissociation constant Kd in [4] is above 30 µM; in assay [5], above 70 µM; in [6], 2.9 µM; in assay [7], above 50 µM; in assay [8], 1.8 µM; in [9] it was above 50 µM. In assay [10], this molecule returned an equilibrium dissociation constant (Kd) of 2.8 µM.

For the molecule AYADEEGGGEEDQDFD [E-cadherin 755-770 Y755A,Y757A], in assay [1], the dissociation constant (Kd) was determined as 4.1 µM.

YAYDEEGGGEEDQDFD (domain or fragment) [E-cadherin site-1 Y756A] had a Kd in assay [1] of 2.2 µM.

As for AYYDEEGGGEEDQDFD (domain or fragment) [E-cadherin site-1 Y755A], in assay [1], the Kd turned out to be 5 µM.

B3: E-cadherin 734-838 (protein)
chain: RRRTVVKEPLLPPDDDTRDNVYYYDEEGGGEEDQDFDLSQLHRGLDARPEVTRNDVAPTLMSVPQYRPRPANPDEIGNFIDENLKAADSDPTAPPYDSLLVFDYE
With B3, binding in assay [3] was put at a Kd of 1.1 µM.

B4: E-cadherin 828-869 (containing both site-2 and site-3) (domain or fragment)
chain: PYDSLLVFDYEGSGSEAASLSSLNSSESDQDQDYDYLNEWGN
For B4, the dissociation constant (Kd) came out at 7.1 µM in [2] and 1 µM in the assay with AnkG R6-24.

Turning to AAYDEEGGGEEDQDFD [E-cadherin 755-770 Y755A,Y756A], the affinity in assay [1], expressed as Kd, was 4.2 µM.

B5: full-length β-catenin 1-781 (natural protein)
chain: MATQADLMELDMAMEPDRKAAVSHWQQQSYLDSGIHSGATTTAPSLSGKGNPEEEDVDTSQVLYEWEQGFSQSFTQEQVADIDGQYAMTRAQRVRAAMFPETLDEGMQIPSTQFDAAHPTNVQRLAEPSQMLKHAVVNLINYQDDAELATRAIPELTKLLNDEDQVVVNKAAVMVHQLSKKEASRHAIMRSPQMVSAIVRTMQNTNDVETARCTAGTLHNLSHHREGLLAIFKSGGIPALVKMLGSPVDSVLFYAITTLHNLLLHQEGAKMAVRLAGGLQKMVALLNKTNVKFLAITTDCLQILAYGNQESKLIILASGGPQALVNIMRTYTYEKLLWTTSRVLKVLSVCSSNKPAIVEAGGMQALGLHLTDPSQRLVQNCLWTLRNLSDAATKQEGMEGLLGTLVQLLGSDDINVVTCAAGILSNLTCNNYKNKMMVCQVGGIEALVRTVLRAGDREDITEPAICALRHLTSRHQEAEMAQNAVRLHYGLPVVVKLLHPPSHWPLIKATVGLIRNLALCPANHAPLREQGAIPRLVQLLVRAHQDTQRRTSMGGTQQQFVEGVRMEEIVEGCTGALHILARDVHNRIVIRGLNTIPLFVQLLYSPIENIQRVAAGVLCELAQDKEAAEAIEAEGATAPLTELLHSRNEGVATYAAAVLFRMSEDKPQDYKKRLSVELTSSLFRTEPMAWNETADLGLDIGAQGEALGYRQDDPSYRSFHSGGYGQDALGMDPMMEHEMGGHHPGADYPVDGLPDLGHAQDLMDGLPPGDSNQLAWFDTDL
B5: the dissociation constant Kd in [4] came out at 0.098 µM; in assay [5], 3.6 µM; in assay [6], 0.11 µM; in assay [7] it was 0.056 µM; in assay [8], 1.4 µM; in assay [9], 8.1 µM. Also, in assay [10], the equilibrium dissociation constant (Kd) was determined as 4.8 µM.

B6: E-cadherin 734-775 (domain or fragment)
chain: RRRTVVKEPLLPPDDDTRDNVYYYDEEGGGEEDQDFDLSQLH
Molecule B6 showed an equilibrium dissociation constant (Kd) in assay [3] of 1.5 µM.
